US20250333501A1 (University of California, published 2025)
Numbering of substitutions follows the chain as printed.

T1: human CLDN6 fused to GFP, expressed on engineered HEK293T cells (HEK293T-CLDN6-mGFP) (human, UniProt P56747 1-220)
T1 construct: It calls residues 1-21 a signal peptide; also called Claudin-6; HEK293T-CLDN6-mGFP Artificial CLDN6+; not shown: mGFP tag
T1 sequence: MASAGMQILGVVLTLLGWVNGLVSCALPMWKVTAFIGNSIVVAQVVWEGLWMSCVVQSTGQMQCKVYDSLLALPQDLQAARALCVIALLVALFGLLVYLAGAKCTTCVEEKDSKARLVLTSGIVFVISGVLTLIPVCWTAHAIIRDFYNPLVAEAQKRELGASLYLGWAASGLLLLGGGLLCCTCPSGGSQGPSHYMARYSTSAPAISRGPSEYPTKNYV

T2: CLDN6 endogenously expressed by human cancer cell lines (ARK2, OVCA429) (human, UniProt P56747 1-220)
T2 construct: Untagged endogenous protein; also called Endogenous CLDN6+
T2 sequence: T1 sequence

B1: AB18-chim (antibody, V domains shown)
VH: QVQLKQSGPELEKPGASVKISCKASGYSFTGYNMNWVKQSNGKSLEWIGNIDPYYGGSTYNQKFTGKATLTVDKSSSTAYMQLKSLTSEDSAVYYCARERSGYVFSAMDYWGQGTSVTVSS
VL: NIMMTQSPSSLAVSAGEKVTMSCKSSQSVLFSSNQKNYLAWYQQKPGQSPRLLIYWASTRESGVPDRFTGSGSGTDFTLTISNVQAEDLAVYYCHQYLSSRTFGAGTKLELK
notes: 'chim' is the pre-humanized form (parental variable regions); also called pre-humanized (chimeric) form of AB18
B2: AB11-chim (antibody, V domains shown)
VH: DVQLVESGGGLVQPRGSRKLSCAASGFTFSSFGMHWVRQAPEKGLEWVAYISSDSRTIYYADTVKGRFTISRDNPTNTLFLQMTSLRSEDTAMYYCARDYGRTYEAYWGQGTLVTVSA
VL: DIVLTQSPASLAVSLGQRATISCRASKSVSTSGYSYIHWYQQKPGQPPKLLIYLASNLESGVPARFSGSGSGTDFTLNIHPVEEEDAATYYCQHSRELPLTFGAGTKLELK
notes: 'chim' is the pre-humanized form (parental variable regions); also called pre-humanized (chimeric) form of AB11
B3: AB11-2 (antibody, V domains shown)
VH: EVQLVESGGGLVQPGGSLRLSCAASGFTFSSFGMHWVRQAPGKGLEWVAYISSDSRTIYYADSVKGRFTISRDNAKNSLYLQMNSLRAEDTAVYYCARDYGRTYEAYWGQGTLVTVSS
VL: DIVMTQSPDSLAVSLGERATINCRASKSVSTSGYSYIHWYQQKPGQPPKLLIYLASNLESGVPDRFSGSGSGTDFTLTISSLQAEDVAVYYCQHSRELPLTFGQGTKLEIK
notes: also called Humanized AB 11-2
B4: AB11-3 (antibody, V domains shown)
VH: B3 VH
VL: B3 VL with M4L, L82V, I110L
notes: also called Humanized AB 11-3
B5: AB18-3 (antibody, V domains shown)
VH: QVQLVQSGAEVKKPGASVKVSCKASGYSFTGYNMNWVRQAPGQGLEWMGNIDPYYGGSTYAQKFQGRVTMTVDTSTSTVYMELSSLRSEDTAVYYCARERSGYVFSAMDYWGQGTLVTVSS
VL: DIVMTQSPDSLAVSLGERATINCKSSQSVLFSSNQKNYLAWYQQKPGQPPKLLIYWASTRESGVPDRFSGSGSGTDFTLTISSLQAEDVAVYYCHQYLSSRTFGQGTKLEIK
notes: Humanized; also called Humanized AB 18-3
B6: AB18-6 (antibody, V domains shown)
VH: B5 VH with V20I, M48I, V68A, M70L, V79A
VL: DIVMTQSPDSLAVSLGERVTMNCKSSQSVLFSSNQKNYLAWYQQKPGQPPKLLIYWASTRESGVPDRFSGSGSGTDFTLTISSVQAEDVAVYYCHQYLSSRTFGQGTKLEIK
notes: also called Humanized AB 18-6
B7: AB18-5 (antibody, V domains shown)
VH: B5 VH with V20I, M48I, V68A, M70L, V79A
VL: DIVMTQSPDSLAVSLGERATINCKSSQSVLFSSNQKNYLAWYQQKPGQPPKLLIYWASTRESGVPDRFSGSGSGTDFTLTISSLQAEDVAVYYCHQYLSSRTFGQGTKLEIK
notes: also called Humanized AB 18-5
B8: AB18-4 (antibody, V domains shown)
VH: B5 VH
VL: B6 VL
notes: also called Humanized AB 18-4
B9: AB9-chim (antibody, V domains shown)
VH: EVQLQQSGPELVKPGASVKMSCKASGYRFTDYNMHWVKQSHGKSLEWIGYINPNNGGTNYNQNFKGKATLTVNKSSSTAYMELRSLTSEDSAAYYCARDYLYFFDCWGQGTTLTVSS
VL: DIQMTQSPASQSASLGESVTITCLASQTIGTWLAWYQQKPGKSPQLLIYAAASLADGVPSRFSGSGSGTRFSFKISSLQAEDFVSYYCQQLYSIPRTFGGGTKLEIK
notes: 'chim' is the pre-humanized form (parental variable regions); also called pre-humanized (chimeric) form of AB9
B10: AB4-4 (antibody, V domains shown)
VH: QVQLVQSGAEVKKPGASVKMSCKASGYTFTSYTMHWIRQAPGQGLEWIGYINPSSTYTHYAQKFQGRATLTADTSTSTAYMELSSLRSEDTAVYYCSRGELGGFAYWGQGTLVTVSS
VL: DVVMTQSPLSLPVTLGQPASISCRSSQSLVHSDGNTYLNWYQQRPGQSPRLLIYKVSNRFSGVPDRFSGSGSGTDFTLKISRVEAEDVGVYYCSQSTHVPYTFGQGTKLEIK
notes: also called Humanized AB 4-4
B11: AB4-5 (antibody, V domains shown)
VH: B10 VH with L45Q
VL: B10 VL
notes: also called Humanized AB 4-5
B12: AB4-3 (antibody, V domains shown)
VH: B10 VH with M20V, I37V, I48M, A68V, L70M, A79V
VL: B10 VL
notes: also called Humanized AB 4-3
B13: AB16 (antibody, V domains shown)
VH: EVRLVESGGGLMQPGGSLKLPCAASGFPFSSSAMSWVRQTPEKRLEWVASINSDGNTYYPDSVKGRFTISRDSARNILYLQMSSLRSEDTAMYYCTRNGDYRYDEFAYWGQGTLVTVSA
VL: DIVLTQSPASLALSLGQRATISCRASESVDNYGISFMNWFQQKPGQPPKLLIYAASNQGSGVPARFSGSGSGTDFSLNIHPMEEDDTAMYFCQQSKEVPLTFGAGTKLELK
notes: Labelled with Alexa Fluor 647 NHS ester for FACS
B14: AB9-3 (antibody, V domains shown)
VH: QVQLVQSGAEVKKPGASVKMSCKASGYRFTDYNMHWVRQAPGQGLEWIGYINPNNGGTNYAQKFQGRATLTVDTSTSTAYMELSSLRSEDTAVYYCARDYLYFFDCWGQGTLLTVSS
VL: DIQMTQSPSSLSASVGDRVTITCLASQTIGTWLAWYQQKPGKAPKLLIYAAASLADGVPSRFSGSGSGTDFTFTISSLQPEDFVTYYCQQLYSIPRTFGQGTKLEIK
notes: also called Humanized AB 9-3
B15: AB9-4 (antibody, V domains shown)
VH: B14 VH
VL: B14 VL with L24R
notes: also called Humanized AB 9-4

Assays:
[1] = biological target: T1, human CLDN6 fused to GFP, expressed on …; assay: FACS, 1.5 µg Ab, 293T clone with human CLDN6
How it was run: (§1)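 Engineered 293T clones expressing human CLDN6 were detached with EDTA and incubated with Alexa Fluor 647 NHS ester-labelled humanized antibody, at 0.3 µg or 1.5 µg, for 30 min on ice in the dark. After washing, the cells were read by flow cytometry on a BD Accuri C6 in channel FL4H. Fluorescence in this direct-binding assay reflects relative antigen binding strength.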

[2] = biological target: T2, CLDN6 endogenously expressed by human …; assay: FACS, 1.5 µg Ab, ARK2 cells
Description: (§2) FACS assays were also carried out to determine relative antigen binding strengths of the humanized antibodies (at either 1.5 μg or 0.3 μg) for binding to CLDN6 as expressed by the indicated cancer cell lines. 2nd Ab only was used as a negative control.

[3] = biological target: T2, CLDN6 endogenously expressed by human …; assay: FACS, 0.3 µg Ab, ARK2 cells
Description: as §2

[4] = biological target: T1, human CLDN6 fused to GFP, expressed on …; assay: FACS, 0.3 µg Ab, 293T clone with human CLDN6
How it was run: as §1

[5] = biological target: T2, CLDN6 endogenously expressed by human …; assay: FACS, 1.5 µg Ab, OVCA429 cells
[6] = biological target: T1, human CLDN6 fused to GFP, expressed on …; assay: FACS, AF647-labelled mAb, HEK293T-CLDN6-mGFP cells
Description: Antibodies were purified and cell surface binding of the antibodies to CLDN6 and the antibody IC₅₀ were determined by FACS in which CLDN6 antibodies were directly conjugated with Alexa Fluor® 647 NHS Ester (Succinimidyl Ester), Cat #A20106 (ThermoFisher Scientific) following the manufacturer's protocol. CLDN6 antibodies were tested from 0.32 nM to 1000 nM (serial dilution 1:5, 6 points) in a 50 μl volume with 150,000 cells system.
CLDN6-expressing cells were used in FACS assays to determine the CLDN6 antibody's ability to bind to CLDN6 on the surface of cells and to cross-react with other CLDN family members. HEK293 T cells engineered to express human CLDN6 fused to GFP, mouse CLDN6 fused to GFP, CLDN9-GFP, CLDN4-GFP, or CLDN3-GFP, or GFP alone (without CLDN6) were used as artificial models of CLDN6 expression. ARK2, OVCA429, LS513 and MCF7 cells were used as endogenous models of CLDN6 expression, as well as models for CLDN3/4 expression.
For each type of cell tested and for each mAb, cells were detached from the surface of the culture flasks by EDTA (instead of trypsin) in order to protect the cell surface proteins. The detached cells were then incubated with Alexa Fluor®-labeled CLDN6 mAbs for 30 min in the dark on ice at a pre-determined concentration. The CLDN6 mAbs were directly labeled with Alexa Fluor® 647 NHS Ester (Succinimidyl Ester). After washing, the cells were read by a BD Accuri™ Flow Cytometer C6 to detect antibody-antigen protein binding in channel FL4H. Each antibody was tested at varied concentrations to establish a dose-fluorescence curve. The EC50/IC50 of the antibodies (the concentration of the antibody at which half the max value were calculated based on the values of FL4H (gated in viable singlet cells) using the Very Simple IC50 Tool kit available online which allows biological dose-response data to be plotted and fitted to curve types to give the EC50/IC50. The max value was the lowest concentration of the antibody at which fluorescence maxes out. The antibodies were also screened for their ability to cross-react with other CLDN proteins such as CLDN9, CLDN3, and CLDN4. These values were used to determine each antibody's relative affinity among the set of antibodies tested. Cross-reactivity data were obtained using a similar methodology, but with cells having a different expression profile for CLDN6, CLDN3, CLDN4 and CLDN9.

Binder | FACS fluorescence [1] | FACS fluorescence [2] | FACS fluorescence [3] | FACS fluorescence [4] | FACS fluorescence [5] | EC50 [6] [µM]
B1 | 135000 | 9150 | 3440 | 73800 | 25500 | 
B2 | 3490 | 1260 | 1320 | 1670 | 2440 | 
B3 | 2560 | 1940 | 1400 | 1290 | 2690 | 
B4 | 2360 | 1540 | 1320 | 1010 | 2200 | 
B5 | 58900 | 1210 | 1080 | 30400 | 2700 | 
B6 | 58500 | 1940 | 1390 | 26900 | 6750 | 
B7 | 51900 | 1330 | 1310 | 29400 | 4270 | 
B8 | 54400 | 1380 | 1130 | 32400 | 3220 | 
B9 | 72000 | 4490 | 3510 | 46700 | 3570 | 
B10 | 49000 | 1400 | 1050 | 14100 | 1200 | 
B11 | 43400 | 1200 | 967 | 16800 | 1350 | 
B12 | 47800 | 1520 | 1190 | 14300 | 1160 | 
B13 |  |  |  |  |  | ≥ 5
B14 | 24600 | 1470 | 1140 | 9500 | 1260 | 
B15 | 34300 | 1550 | 1120 | 15300 | 1110 | 
